Experimental findings from patent US20250032588A1 (Eli Lilly, published 2025) are described below.

The chains are these.
B1: Example 9 fusion protein (SEQ ID NO:23) (Fc fusion)
chain: FVNQHLCGSHLVEALELVCGERGFFYTEETGGGGGGGIVEQCCTSICSLYQLENYCGGGGGSGGGGSGGGGSGGGGSECPPCPAPPVAGPSVFLFPPKPKDTLMISRTPEVTCVVVDVSHEDPEVQFNWYVDGVEVHNAKTKPREEQFNSTFRVVSVLTVVHQDWLNGKEYKCKVSNKGLPAPIEKTISKTKGQPREPQVYTLPPSREEMTKNQVSLTCLVKGFYPSDIAVEWESNGQPENNYKTTPPMLDSDGSFFLYSKLTVDKSRWQQGNVFSCSVMHEALHNHYTQKSLSLSPG
B2: Example 3 fusion protein (SEQ ID NO:17) (Fc fusion)
chain: FVNQHLCGSHLVEALELVCGERGFHYGGGGGGSGGGGGIVEQCCTSICSLDQLENYCGGGGGQGGGGQGGGGQGGGGQGGPCPPCPAPEAAGGPSVFLFPPKPKDTLMISRTPEVTCVVVDVSQEDPEVQFNWYVDGVEVHNAKTKPREEQFNSTYRVVSVLTVLHQDWLNGKEYKCKVSNKGLPSSIEKTISKAKGQPREPQVYTLPPSQEEMTKNQVSLTCLVKGFYPSDIAVEWESNGQPENNYKTTPPVLDSDGSFFLYSRLTVDKSRWQEGNVFSCSVMHEALHNHYTQKSLSLSLG
B3: Example 5 fusion protein (SEQ ID NO:19) (Fc fusion)
chain: FVNQHLCGSHLVEALELVCGERGFHYGGGGGGSGGGGGIVEQCCTSTCSLDQLENYCGGGGGQGGGGQGGGGQGGGGQGGPCPPCPAPEAAGGPSVFLFPPKPKDTLMISRTPEVTCVVVDVSQEDPEVQFNWYVDGVEVHNAKTKPREEQFNSTYRVVSVLTVLHQDWLNGKEYKCKVSNKGLPSSIEKTISKAKGQPREPQVYTLPPSQEEMTKNQVSLTCLVKGFYPSDIAVEWESNGQPENNYKTTPPVLDSDGSFFLYSRLTVDKSRWQEGNVFSCSVMHEALHNHYTQKSLSLSLG
B4: Example 1 fusion protein (SEQ ID NO:12) (Fc fusion)
chain: FVNQHLCGSHLVEALELVCGERGFHYGGGGGGSGGGGGIVEQCCTSTCSLDQLENYCGGGGGQGGGGQGGGGQGGGGGECPPCPAPPVAGPSVFLFPPKPKDTLMISRTPEVTCVVVDVSHEDPEVQFNWYVDGVEVHNAKTKPREEQFNSTFRVVSVLTVVHQDWLNGKEYKCKVSNKGLPAPIEKTISKTKGQPREPQVYTLPPSREEMTKNQVSLTCLVKGFYPSDIAVEWESNGQPENNYKTTPPMLDSDGSFFLYSKLTVDKSRWQQGNVFSCSVMHEALHNHYTQKSLSLSPG

This experiment has as its target T1, human insulin receptor isoform A (human, UniProt P06213-2 28-1370).
T1 construct: whole, on cells; Tested as P1 membrane preparations of the over-expressing cells; also called hIR-A
Briefly: competitive radio-ligand binding, [125I]-insulin, membranes of 293EBNA cells over-expressing hIR-A. The method, then:
IC₅₀ values are determined from 4-parameter logistic non-linear regression analysis (XLFit version 4.0, IDBS). If necessary, curve top or bottom parameters are set to 100 or 0, respectively.
Reported values for Kᵢ are shown as geometric mean±the standard error of the mean (SEM), with the number of replicate determinations indicated by “n” (Table 1).
As to B1, the Ki amounted to 3.74 nM.

B2 displayed a Ki of 10.1 nM.

In the case of B3, the Ki came out at 35.6 nM.

For the molecule B4, the Ki was determined as 24.9 nM.

By Ki is commonly meant the equilibrium dissociation constant of an inhibitor or competing ligand from its target. A high value points to a looser hold on the target.
